Measurements published in US20180072798A1.

How the values were obtained:
[1] = target: DENV-1 virus particle, strain 05K2916 (167), live (dengue virus serotype 1 (DENV-1), strain 05K2916); assay: cell-based or functional assay
[2] = target: DENV-2 virus particle, strain TSV01, live (dengue virus serotype 2 (DENV-2), strain TSV01); assay: cell-based or functional assay
[3] = target: DENV-3 virus, strain VN32/96 (dengue virus serotype 3 (DENV-3), strain VN32/96); assay: cell-based or functional assay
[4] = target: DENV-4 virus particle, strain 2641Y08, live (dengue virus serotype 4 (DENV-4), strain 2641Y08); assay: cell-based or functional assay
[5] = target: DENV-2 (TSV01) E protein mutant E49A, soluble part, V5 tag, from S2 cells (dengue virus serotype 2 (DENV-2), strain TSV01); assay: sandwich ELISA, V5-tagged soluble E captured by anti-V5
[6] = target: DENV-2 (TSV01) E protein mutant F108A, soluble part, V5 tag, from S2 cells (dengue virus serotype 2 (DENV-2), strain TSV01); assay: as above
[7] = target: DENV-2 (TSV01) E protein mutant G100A, soluble part, V5 tag, from S2 cells (dengue virus serotype 2 (DENV-2), strain TSV01); assay: as above
[8] = target: DENV-2 (TSV01) E protein mutant K295A, soluble part, V5 tag, from S2 cells (dengue virus serotype 2 (DENV-2), strain TSV01); assay: as above
[9] = target: DENV-2 (TSV01) E protein mutant K64A, soluble part, V5 tag, from S2 cells (dengue virus serotype 2 (DENV-2), strain TSV01); assay: as above
[10] = target: DENV-2 (TSV01) E protein mutant N134A, soluble part, V5 tag, from S2 cells (dengue virus serotype 2 (DENV-2), strain TSV01); assay: as above
[11] = target: DENV-2 (TSV01) E protein mutant N153A, soluble part, V5 tag, from S2 cells (dengue virus serotype 2 (DENV-2), strain TSV01); assay: as above
[12] = target: DENV-2 (TSV01) E protein mutant N203A, soluble part, V5 tag, from S2 cells (dengue virus serotype 2 (DENV-2), strain TSV01); assay: as above
[13] = target: DENV-2 (TSV01) E protein mutant Q167A, soluble part, V5 tag, from S2 cells (dengue virus serotype 2 (DENV-2), strain TSV01); assay: as above
[14] = target: DENV-2 (TSV01) E protein mutant Q77A, soluble part, V5 tag, from S2 cells (dengue virus serotype 2 (DENV-2), strain TSV01); assay: as above
[15] = target: DENV-2 (TSV01) E protein mutant R323A, soluble part, V5 tag, from S2 cells (dengue virus serotype 2 (DENV-2), strain TSV01); assay: as above
[16] = target: DENV-2 (TSV01) E protein mutant S169A, soluble part, V5 tag, from S2 cells (dengue virus serotype 2 (DENV-2), strain TSV01); assay: as above
[17] = target: DENV-2 (TSV01) E protein mutant S274A, soluble part, V5 tag, from S2 cells (dengue virus serotype 2 (DENV-2), strain TSV01); assay: as above
[18] = target: DENV-2 (TSV01) E protein mutant T155A, soluble part, V5 tag, from S2 cells (dengue virus serotype 2 (DENV-2), strain TSV01); assay: as above
[19] = target: DENV-2 (TSV01) E protein mutant W101A, soluble part, V5 tag, from S2 cells (dengue virus serotype 2 (DENV-2), strain TSV01); assay: as above
[20] = target: DENV-2 (TSV01) wildtype E protein, full length, expressed with prM in HEK293 cells (dengue virus serotype 2 (DENV-2), strain TSV01); assay: flow cytometry on transfected HEK293 cells; the reference itself
[21] = target: DENV-2 (TSV01) wildtype E protein, soluble part, V5 tag, from S2 cells (dengue virus serotype 2 (DENV-2), strain TSV01); assay: sandwich ELISA, V5-tagged soluble E captured by anti-V5; the reference itself
[22] = target: DENV-2 (TSV01) E protein mutant E161A, full length, expressed with prM in HEK293 cells (dengue virus serotype 2 (DENV-2), strain TSV01); assay: flow cytometry on transfected HEK293 cells, normalised to 3H5 staining and to wt
[23] = target: DENV-2 (TSV01) E protein mutant E202A, full length, expressed with prM in HEK293 cells (dengue virus serotype 2 (DENV-2), strain TSV01); assay: as above
[24] = target: DENV-2 (TSV01) E protein mutant E49A, full length, expressed with prM in HEK293 cells (dengue virus serotype 2 (DENV-2), strain TSV01); assay: as above
[25] = target: DENV-2 (TSV01) E protein mutant F392A, full length, expressed with prM in HEK293 cells (dengue virus serotype 2 (DENV-2), strain TSV01); assay: as above
[26] = target: DENV-2 (TSV01) E protein mutant I162A, full length, expressed with prM in HEK293 cells (dengue virus serotype 2 (DENV-2), strain TSV01); assay: as above
[27] = target: DENV-2 (TSV01) E protein mutant K122A, full length, expressed with prM in HEK293 cells (dengue virus serotype 2 (DENV-2), strain TSV01); assay: as above
[28] = target: DENV-2 (TSV01) E protein mutant K295A, full length, expressed with prM in HEK293 cells (dengue virus serotype 2 (DENV-2), strain TSV01); assay: as above
[29] = target: DENV-2 (TSV01) E protein mutant K310A, full length, expressed with prM in HEK293 cells (dengue virus serotype 2 (DENV-2), strain TSV01); assay: as above
[30] = target: DENV-2 (TSV01) E protein mutant N134A, full length, expressed with prM in HEK293 cells (dengue virus serotype 2 (DENV-2), strain TSV01); assay: as above
[31] = target: DENV-2 (TSV01) E protein mutant N153A, full length, expressed with prM in HEK293 cells (dengue virus serotype 2 (DENV-2), strain TSV01); assay: as above
[32] = target: DENV-2 (TSV01) E protein mutant N203A, full length, expressed with prM in HEK293 cells (dengue virus serotype 2 (DENV-2), strain TSV01); assay: as above
[33] = target: DENV-2 (TSV01) E protein mutant Q200A, full length, expressed with prM in HEK293 cells (dengue virus serotype 2 (DENV-2), strain TSV01); assay: as above
[34] = target: DENV-2 (TSV01) E protein mutant Q77A, full length, expressed with prM in HEK293 cells (dengue virus serotype 2 (DENV-2), strain TSV01); assay: as above
[35] = target: DENV-2 (TSV01) E protein mutant R323A, full length, expressed with prM in HEK293 cells (dengue virus serotype 2 (DENV-2), strain TSV01); assay: as above
[36] = target: DENV-2 (TSV01) E protein mutant S169A, full length, expressed with prM in HEK293 cells (dengue virus serotype 2 (DENV-2), strain TSV01); assay: as above
[37] = target: DENV-2 (TSV01) E protein mutant T155A, full length, expressed with prM in HEK293 cells (dengue virus serotype 2 (DENV-2), strain TSV01); assay: as above
[38] = target: DENV-2 (TSV01) E protein mutant W101A, full length, expressed with prM in HEK293 cells (dengue virus serotype 2 (DENV-2), strain TSV01); assay: as above
[39] = target: DENV-2 (TSV01) E protein mutant W391A, full length, expressed with prM in HEK293 cells (dengue virus serotype 2 (DENV-2), strain TSV01); assay: as above

B1: 3C H5L1 antibody (antibody, V domains shown)
VH: EVQLVQSGPDVEKPGASVKVSCKASGYTFTSNYIHWVRQAPGQGLEWMGVINPRGGSTASAQKFQGRITMTRDTSTSTVYMELSSLRSDDTAVYYCARGGRALFYDSYTTPRDGGSWWFDPWGQGSLVTVSS
VL: DIQLTQSPSSLSASVGDRVTFTCQASQDIRKYLNWYQQKPGKAPKLLIYDASNLKTGVPSRFSGSGSGTDFTFTISSLQPEDVATYYCQQFDDLPITFGQGTRLQIK
[1]
  EC50, plaque reduction neutralization test (PRNT) on BHK-21 cells: 0.6 µg/mL
[2]
  EC50, plaque reduction neutralization test (PRNT) on BHK-21 cells: 0.001 µg/mL
[3]
  EC50, plaque reduction neutralization test (PRNT) on BHK-21 cells: 0.5 µg/mL
[4]
  EC50, plaque reduction neutralization test (PRNT) on BHK-21 cells: 0.07 µg/mL
[5]
  relative binding (normalised to wt E protein) (ratio to wt E protein): 0.695
[6]
  relative binding (normalised to wt E protein) (ratio to wt E protein): 0.806
[7]
  relative binding (normalised to wt E protein) (ratio to wt E protein): 0.186
[8]
  relative binding (normalised to wt E protein) (ratio to wt E protein): 0.189
[9]
  relative binding (normalised to wt E protein) (ratio to wt E protein): 0.444
[10]
  relative binding (normalised to wt E protein) (ratio to wt E protein): 0.221
[11]
  relative binding (normalised to wt E protein) (ratio to wt E protein): 0.806
[12]
  relative binding (normalised to wt E protein) (ratio to wt E protein): 0.72
[13]
  relative binding (normalised to wt E protein) (ratio to wt E protein): 0.774
[14]
  relative binding (normalised to wt E protein) (ratio to wt E protein): 0.747
[15]
  relative binding (normalised to wt E protein) (ratio to wt E protein): 0.334
[16]
  relative binding (normalised to wt E protein) (ratio to wt E protein): 0.784
[17]
  relative binding (normalised to wt E protein) (ratio to wt E protein): 0.0859
[18]
  relative binding (normalised to wt E protein) (ratio to wt E protein): 0.839
[19]
  relative binding (normalised to wt E protein) (ratio to wt E protein): 0.242
[20]
  relative binding (normalised to wt E protein) (ratio to wt E protein): 1
[21]
  relative binding (normalised to wt E protein) (ratio to wt E protein): 1
[22]
  relative binding (normalised to wt E protein) (ratio to wt E protein): 1.07
[23]
  relative binding (normalised to wt E protein) (ratio to wt E protein): 2.02
[24]
  relative binding (normalised to wt E protein) (ratio to wt E protein): 0.996
[25]
  relative binding (normalised to wt E protein) (ratio to wt E protein): 0.133
[26]
  relative binding (normalised to wt E protein) (ratio to wt E protein): 0.242
[27]
  relative binding (normalised to wt E protein) (ratio to wt E protein): 0.27
[28]
  relative binding (normalised to wt E protein) (ratio to wt E protein): 1.04
[29]
  relative binding (normalised to wt E protein) (ratio to wt E protein): 0.15
[30]
  relative binding (normalised to wt E protein) (ratio to wt E protein): 1.08
[31]
  relative binding (normalised to wt E protein) (ratio to wt E protein): 0.535
[32]
  relative binding (normalised to wt E protein) (ratio to wt E protein): 0.719
[33]
  relative binding (normalised to wt E protein) (ratio to wt E protein): 0.394
[34]
  relative binding (normalised to wt E protein) (ratio to wt E protein): 0.38
[35]
  relative binding (normalised to wt E protein) (ratio to wt E protein): 0.416
[36]
  relative binding (normalised to wt E protein) (ratio to wt E protein): 0.963
[37]
  relative binding (normalised to wt E protein) (ratio to wt E protein): 0.621
[38]
  relative binding (normalised to wt E protein) (ratio to wt E protein): 0.165
[39]
  relative binding (normalised to wt E protein) (ratio to wt E protein): 0.144
